Kd data for three substances are collected here from publication PMC7114247.

For orientation: Kd means the concentration at which binding is half-saturated.

The data set deals with rVP35 wt (Zaire ebolavirus) (UniProt Q05127).
UniProt Q05127, sequence (Q05127 whole entry): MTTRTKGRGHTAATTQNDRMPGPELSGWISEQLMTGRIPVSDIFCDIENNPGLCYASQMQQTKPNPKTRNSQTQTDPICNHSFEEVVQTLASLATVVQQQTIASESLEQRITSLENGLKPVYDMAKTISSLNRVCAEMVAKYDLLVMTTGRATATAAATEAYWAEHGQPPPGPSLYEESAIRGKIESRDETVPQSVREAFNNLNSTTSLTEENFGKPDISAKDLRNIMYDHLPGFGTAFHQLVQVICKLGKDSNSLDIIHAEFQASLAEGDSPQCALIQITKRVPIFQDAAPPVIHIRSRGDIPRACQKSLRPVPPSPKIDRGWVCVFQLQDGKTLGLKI
With IVT 50 bp dsRNA, the Kd is 3.2 nM. With IVT 150 bp dsRNA the figure was 2.4 nM; with IVT 500 bp dsRNA, 2.8 nM.
